Experimental data as given in patent US20170240633A1 (published 2017).
Numbering of substitutions follows the chain as printed. Where two headings read alike, the source gives them in different places.

B1: anti-TIM-3 antibody clone A3 (antibody, V domains shown)
VH: QVQLVQSGAEVKKPGASVKVSCKASGYTFTSYYMHWVRQAPGQGLEWMGIINPSGGSTSYAQKFQGRVTMTRDTSTSTVYMELSSLRSEDTAVYYCARSPGVVTALFDYWGQGTLVTVSS
VL: DIQMTQSPSFMSASVGDRVTITCRASQDIGSYLAWYQQKPGKAPKLLIYAASTLQSGVPSRFSGSGSGTDFTLTINSLQPEDFATYYCQQSYSSPPTFGPGTTLEIK
B2: anti-TIM-3 antibody clone G6 (antibody, V domains shown)
VH: QVQLQESGPGLVKPSGTLSLTCAVSGGSISSSNWWSWVRQPPGKGLEWIGEIYHSGSTNYNPSLKSRVTISVDKSKNQFSLKLSSVTAADTAVYYCARVVAVAGTVDYWGQGTLVTVSS
VL: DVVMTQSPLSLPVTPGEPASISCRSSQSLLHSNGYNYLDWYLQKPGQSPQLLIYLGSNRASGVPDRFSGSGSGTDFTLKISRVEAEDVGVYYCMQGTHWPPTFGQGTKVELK
B3: anti-TIM-3 antibody clone G7 (antibody, V domains shown)
VH: EVQLVQSGAEVKKPGASVKVSCKASGYTFTSYYMHWVRQAPGQGLEWMGIINPSGGSTSYAQKFQGRVTMTRDTSTSTVYMELSSLRSEDTAVYYCARDQYSSGWYYYGMDVWGQGTTVTVSS
VL: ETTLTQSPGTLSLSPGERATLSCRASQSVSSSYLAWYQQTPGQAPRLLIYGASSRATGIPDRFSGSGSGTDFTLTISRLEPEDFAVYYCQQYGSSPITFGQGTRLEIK
B4: anti-TIM-3 antibody clone G9 (antibody, V domains shown)
VH: B3 VH with E1Q, V5Q, Q100L, S103Y, W105F
VL: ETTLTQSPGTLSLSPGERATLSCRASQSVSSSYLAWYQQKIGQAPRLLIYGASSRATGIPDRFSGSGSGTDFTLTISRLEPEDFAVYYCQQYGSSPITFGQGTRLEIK
B5: anti-TIM-3 antibody clone B10 (antibody, V domains shown)
VH: QVQLQESGPGLVKASETLSLTCTVSGGSIGSSDYYWGWIRQPPGKGLEWIGSIYYSGSTYYNPSLKSRVTMSVDTPNNQFSLKLSSVTAADTAVYYCARGEHRGEFDYWGQGTLVTVSS
VL: EIVLTQSPATLSFSPGERATLSCRASQSVGSYLAWYQQRPGQAPRPLIYDATNRATGIPTRFSGSGSGTDFTLTISSLEPEDFATYYCQHRRTFGRGTKLEIK
B6: anti-TIM-3 antibody clone A11 (antibody, V domains shown)
VH: QVQLQQWGAGLLKPSETLSLTCAVYGGSFSGYYWSWIRQPPGKGLEWIGEINHSGSTNYNPSLKSRVTISVDTSKNQFSLKLSSVTAADTAVYYCARGYVAGFDYWGQGTLVTVSS
VL: QSVVTQPPSVSAAPGQKVTISCSGSSSNIGNNYVSWYQQLPGTAPKLLIYGNNWRPSGIPDRFSGSKSGTSATLAISGLQTGDEADYYCETWDSSLSAGVFGGGTKLTVL

What was measured:
[1] = target: T1, human TIM-3 coupled to human Fc (human, UniProt Q8TDQ0 22-200); assay: SPR
[2] = target: T1, human TIM-3 coupled to human Fc; assay: SPR; remark: listed apart in the source

Row | Binder | Kd [1] [nM] | Kd [2] [nM]
1 | B1 | 0.44 | 
2 | B2 | 2.52 | 
3 | B3 | 0.62 | 
4 | B4 | 0.63 | 
5 | B5 | 0.26 | 
6 | B6 |  | 1.26
